In patent US20220306758A1 (Regeneron, published 2022):

T1: human BCMA on cells (endogenous, on multiple myeloma and lymphoma cell lines) (human, UniProt Q02223 1-184)
T1 sequence: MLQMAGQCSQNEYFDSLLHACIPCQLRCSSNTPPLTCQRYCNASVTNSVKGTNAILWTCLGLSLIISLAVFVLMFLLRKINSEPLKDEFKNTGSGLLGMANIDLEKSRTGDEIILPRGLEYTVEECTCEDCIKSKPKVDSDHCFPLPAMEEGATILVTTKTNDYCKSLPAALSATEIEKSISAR

T2: human BCMA-MFC (extracellular domain of human BCMA with C-terminal mFc tag) (human)
T2 construct: also called hBCMA.mFc
T2 chain: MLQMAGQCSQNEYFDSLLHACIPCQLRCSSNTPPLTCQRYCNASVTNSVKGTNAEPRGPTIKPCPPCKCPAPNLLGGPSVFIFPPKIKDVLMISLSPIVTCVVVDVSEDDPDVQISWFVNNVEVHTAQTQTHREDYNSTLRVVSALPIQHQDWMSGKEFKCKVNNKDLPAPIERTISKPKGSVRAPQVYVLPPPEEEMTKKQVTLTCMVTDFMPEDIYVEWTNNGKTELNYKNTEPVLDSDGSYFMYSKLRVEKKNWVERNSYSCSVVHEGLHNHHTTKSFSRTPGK

T3: mouse BCMA-MFC (BCMA with C-terminal mFc tag) (mouse)
T3 construct: Tested at 30 nM only
T3 chain: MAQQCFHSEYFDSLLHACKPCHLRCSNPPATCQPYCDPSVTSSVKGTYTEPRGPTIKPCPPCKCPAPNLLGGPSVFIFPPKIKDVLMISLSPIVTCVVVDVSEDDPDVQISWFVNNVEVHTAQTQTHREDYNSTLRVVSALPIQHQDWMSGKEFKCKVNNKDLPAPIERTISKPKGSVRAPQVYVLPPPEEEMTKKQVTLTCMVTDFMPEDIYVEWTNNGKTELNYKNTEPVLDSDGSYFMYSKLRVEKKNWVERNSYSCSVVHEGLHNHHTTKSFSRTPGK


Columns and labels:
[1] = target: T4, human CD3 on Jurkat cells and primary human CD8+ T cells (human, UniProt P07766 23-207; P04234 22-171; P20963 22-164; P09693 23-182); assay: flow cytometry on primary human CD8+ T cells, n=1
T4 construct: Endogenous CD3 complex on cells; also called hCD3; Jurkat-hCD3
T4 sequence (P07766 23-207 limits assumed, chain 1 of 4): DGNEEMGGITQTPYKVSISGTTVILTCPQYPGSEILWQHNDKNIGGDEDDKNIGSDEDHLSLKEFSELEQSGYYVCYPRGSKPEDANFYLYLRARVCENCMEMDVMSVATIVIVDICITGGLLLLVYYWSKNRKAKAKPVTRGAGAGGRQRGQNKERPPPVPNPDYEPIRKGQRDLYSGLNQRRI
T4 sequence (P04234 22-171 limits assumed, chain 2 of 4): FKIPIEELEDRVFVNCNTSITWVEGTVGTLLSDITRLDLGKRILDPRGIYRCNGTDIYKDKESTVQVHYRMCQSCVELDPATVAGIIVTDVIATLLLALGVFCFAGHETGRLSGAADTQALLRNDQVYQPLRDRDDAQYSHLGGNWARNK
T4 sequence (P20963 22-164 limits assumed, chain 3 of 4): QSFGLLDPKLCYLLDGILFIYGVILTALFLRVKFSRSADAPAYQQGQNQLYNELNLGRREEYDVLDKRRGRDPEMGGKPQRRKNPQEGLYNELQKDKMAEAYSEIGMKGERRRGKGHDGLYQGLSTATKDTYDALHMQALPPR
T4 sequence (P09693 23-182 limits assumed, chain 4 of 4): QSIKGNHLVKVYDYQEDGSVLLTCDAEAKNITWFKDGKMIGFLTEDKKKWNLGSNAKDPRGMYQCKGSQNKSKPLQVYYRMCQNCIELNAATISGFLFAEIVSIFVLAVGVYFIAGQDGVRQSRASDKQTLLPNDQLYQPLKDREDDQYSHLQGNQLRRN
Method: (§1) Flow cytometric analysis was utilized to determine binding of BCMA×CD3 bispecific antibodies to human and cynomolgus CD3 (Jurkat cells, mfCD3 engineered Jurkat cells, primary human CD8+ and cynomolgus CD8+ T cells). Briefly, 1e05 cells/well were incubated in the presence of FACS wash with block (PBS+1% filtered FBS+5% mouse serum) with a serial dilution of BCMA×CD3 and control antibodies for 30 minutes on ice. After incubation, the cells were washed twice with cold FACS wash (PBS+1% filtered FBS) and bound antibody was detected by incubating with Alexa647-conjugated anti-human secondary antibody on ice for an additional 30 minutes. Wells containing no antibody or secondary only were used as a control. For the detection of monkey and human T cells, a cocktail of human and cynomolgus cross-reactive antibodies to CD4, CD8 and CD16 was added to the anti-human secondary. After incubation, cells were washed, re-suspended in 200 μL cold PBS containing 1% filtered FBS and analyzed by flow cytometry on a BD FACS Canto II. Cells were gated by FSC-H by FSC-A to select singlet events, followed by side and forward scatters to select for live events. For monkey T cells, additional gating on CD8+/CD16− cells was performed.
(§2) EC50 values for FACS binding were calculated using 4-parameter non-linear regression analysis in Prism software.

[2] = target: T1, human BCMA on cells (endogenous, on …); assay: cell-based or functional assay
[3] = target: T4, human CD3 on Jurkat cells and primary …; assay: flow cytometry on Jurkat cells (human CD3), median EC50, n=5
Method: as §1, §2

[4] = target: T1, human BCMA on cells (endogenous, on …); assay: cell-based or functional assay; remark: listed apart in the source
[5] = target: T1, human BCMA on cells (endogenous, on …); assay: cell-based or functional assay; remark: listed apart in the source
[6] = target: T2, human BCMA-MFC (extracellular domain of …); assay: SPR, Biacore, mAb captured by anti-hFc, 25 C
Method: (§3) The CM5 Biacore sensor surface was derivatized by amine coupling with a monoclonal mouse anti-human Fc antibody (GE, #BR-1008-39) to capture purified anti-BCMA mAbs and anti-BCMA×anti-CD3 bispecific mAbs. All Biacore binding studies were performed in a buffer composed of 0.01M HEPES pH 7.4, 0.15M NaCl, 3 mM EDTA, 0.05% v/v Surfactant P20 (HBS-ET running buffer). […] Antigen samples were then injected over the anti-BCMA and anti-BCMA×anti-CD3 bispecific mAbs captured surfaces at a flow rate of 30 μL/minute. Antibody-reagent association was monitored for 5 minutes while dissociation in HBS-ET running buffer was monitored for 10 minutes. All of the binding kinetics experiments were performed at 25° C. Kinetic association (kₐ) and dissociation (kd) rate constants were determined by fitting the real-time sensorgrams to a 1:1 binding model using Scrubber 2.0c curve fitting software. Binding dissociation equilibrium constants (KD) and dissociative half-lives (t½) were calculated from the kinetic rate constants as: […]

[7] = target: T3, mouse BCMA-MFC (BCMA with C-terminal …); assay: SPR, Biacore, mAb captured by anti-hFc, 25 C
Method: as §3

[8] = target: T5, monkey BCMA-MFC (monkey BCMA with C-terminal mFc tag) (monkey); assay: SPR, Biacore, mAb captured by anti-hFc, 25 C
T5 construct: also called mfBCMA.mFc
T5 sequence (chain, as listed by the source limits assumed): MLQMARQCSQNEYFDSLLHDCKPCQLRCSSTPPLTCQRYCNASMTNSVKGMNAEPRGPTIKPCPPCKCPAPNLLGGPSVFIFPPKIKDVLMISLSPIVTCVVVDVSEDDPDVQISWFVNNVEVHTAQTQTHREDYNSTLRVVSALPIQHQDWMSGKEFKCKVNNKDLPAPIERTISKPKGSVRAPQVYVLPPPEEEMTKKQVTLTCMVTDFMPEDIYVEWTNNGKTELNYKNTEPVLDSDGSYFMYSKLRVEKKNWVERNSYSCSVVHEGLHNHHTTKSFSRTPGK
Method: as §3

[9] = target: T1, human BCMA on cells (endogenous, on …); assay: cell-based or functional assay; remark: listed apart in the source

| Binder | EC50 [1] | median EC50 of % Survival, H929 target cells, cynomolgus effector cells (FACS cytotoxicity) [2] | median EC50 of % T activation, H929 target cells, cynomolgus effector cells [2] | EC50 [3] | median EC50 of % Survival, Molp8 target cells, human effector cells (FACS cytotoxicity) [4] | median EC50 of % Survival, RPMI8226 target cells, human effector cells (FACS cytotoxicity) [4] | median EC50 of % T activation (CD25 on CD8+ T cells), Molp8 target cells, human effector cells [4] | median EC50 of % T activation (CD25 on CD8+ T cells), RPMI8226 target cells, human effector cells [4] | median EC50 of % Survival, H929 target cells, human effector cells (FACS cytotoxicity) [5] | median EC50 of % Survival, MM1S target cells, human effector cells (FACS cytotoxicity) [5] | median EC50 of % Survival, U266 target cells, human effector cells (FACS cytotoxicity) [5] | median EC50 of % T activation (CD25 on CD8+ T cells), H929 target cells, human effector cells [5] | median EC50 of % T activation (CD25 on CD8+ T cells), MM1S target cells, human effector cells [5] | median EC50 of % T activation (CD25 on CD8+ T cells), U266 target cells, human effector cells [5] | 30 nM hBCMA.mFc Bind (RU) [6] | Kd [6] | koff [6] | kon [6] | t½ [6] | 30 nM mfBCMA.mFc Bind (RU) (mouse BCMA-MFC by the table's title) [7] | other results |
| --- | --- | --- | --- | --- | --- | --- | --- | --- | --- | --- | --- | --- | --- | --- | --- | --- | --- | --- | --- | --- | --- |
| REGN5458 (bsAb25441D), anti-BCMA x anti-CD3 bispecific antibody (bispecific antibody, V domains shown, Two different heavy chains paired with a common light chain; human Fc (captured by anti-human Fc in SPR); also called bsAb25441D9; mAb25441D) VH 1: EVQLVESGGGLVQPGGSLRLSCAASGFTFSNFWMTWVRQAPGKGLEWVANMNQDGSEKYYVDSVKGRFTISRDNAKSSLYLQMNSLRAEDTAVYYCARDREYCISTSCYDDFDYWGQGTLVTVSS VH 2: EVQLVESGGGLVQPGRSLRLSCAASGFTFDDYSMHWVRQAPGKGLEWVSGISWNSGSKGYADSVKGRFTISRDNAKNSLYLQMNSLRAEDTALYYCAKYGSGYGKFYHYGLDVWGQGTTVTVSS VL: not shown | 32 nM | 0.0234 nM | 0.0683 nM | 15 nM | 0.707 nM | 0.0345 nM | 1.1 nM | 0.0649 nM | 0.103 nM | 0.0646 nM | 0.328 nM | 0.211 nM | 0.0706 nM | 0.107 nM | 107 RU | ≤ 0.0223 nM | ≤ 1e-05 s⁻¹ | 448000 M⁻¹ s⁻¹ | ≤ 19.2 h | 2.7 RU | binding result [7]: no binding (tested: 30 nM); 30 nM mfBCMA.mFc Bind (RU) [8]: 108 RU; Kd [8]: 0.167 nM; koff [8]: 8.8e-05 s⁻¹; kon [8]: 528000 M⁻¹ s⁻¹; t½ [8]: 2.19 h; EC50 of NFAT-luciferase activity, Jurkat/NFATLuc reporter cells with MOLP-8 cells [9]: 1.4 nM; EC50 of NFAT-luciferase activity, Jurkat/NFATLuc reporter cells with RPMI-8226 cells [9]: 0.61 nM; EC50 of NFAT-luciferase activity, Jurkat/NFATLuc reporter cells with Raji cells [9]: 1.6 nM |
| REGN5459 (bsAb25442D), anti-BCMA x anti-CD3 bispecific antibody (bispecific antibody, V domains shown, also called mAb25442D; mAb25442D-A647) VH 1: EVQLVESGGGLVQPGGSLRLSCAASGFTFSNFWMTWVRQAPGKGLEWVANMNQDGSEKYYVDSVKGRFTISRDNAKSSLYLQMNSLRAEDTAVYYCARDREYCISTSCYDDFDYWGQGTLVTVSS VH 2: EVQLVESGGGLVQPGRSLRLSCAASGFTFDDYSMHWVRQAPGKGLEWVSGISWNSGSIGYADSVKGRFTISRDNAKNSLYLQMNSLRAEDTALYYCAKYGSGYGKFYYYGMDVWGQGTTVTVSS VL: not shown | 4710 nM | 0.0692 nM | 0.158 nM | 558 nM | 1.36 nM | 0.106 nM | 6.47 nM | 0.75 nM | 0.301 nM | 0.288 nM | 1.66 nM | 0.3 nM | 0.458 nM | 0.469 nM | 96.8 RU | ≤ 0.0223 nM | ≤ 1e-05 s⁻¹ | 449000 M⁻¹ s⁻¹ | ≤ 19.2 h | 2.4 RU | binding result [7]: no binding (tested: 30 nM); 30 nM mfBCMA.mFc Bind (RU) [8]: 97 RU; Kd [8]: 0.148 nM; koff [8]: 7.15e-05 s⁻¹; kon [8]: 482000 M⁻¹ s⁻¹; t½ [8]: 2.69 h; EC50 of NFAT-luciferase activity, Jurkat/NFATLuc reporter cells with MOLP-8 cells [9]: 11 nM; EC50 of NFAT-luciferase activity, Jurkat/NFATLuc reporter cells with RPMI-8226 cells [9]: 2.6 nM; EC50 of NFAT-luciferase activity, Jurkat/NFATLuc reporter cells with Raji cells [9]: 7.4 nM |
